Key:
CHK2 [1] = target: CHK2 (UniProt O96017); test: fluorescence polarization; conditions: 25 mM Tris-HCl pH 8.0, 10 mM NaCl, 25 mM KCl, 5 mM MgCl2, 0.01% IGEPAL CA630, 10 ug/ml yeast tRNA, SUPERase-In; 2 nM RNA, room temperature 2 h; F-EMSA on …
CHK2 [2] = target: CHK2 (UniProt O96017); test: F-EMSA; conditions: 25 mM Tris-HCl pH 8.0, 10 mM NaCl, 25 mM KCl, 5 mM MgCl2, 0.01% IGEPAL CA630, 10 ug/ml yeast tRNA, SUPERase-In; 2 nM RNA, room temperature 2 h; F-EMSA on …

Chain of CHK2 (O96017 whole entry): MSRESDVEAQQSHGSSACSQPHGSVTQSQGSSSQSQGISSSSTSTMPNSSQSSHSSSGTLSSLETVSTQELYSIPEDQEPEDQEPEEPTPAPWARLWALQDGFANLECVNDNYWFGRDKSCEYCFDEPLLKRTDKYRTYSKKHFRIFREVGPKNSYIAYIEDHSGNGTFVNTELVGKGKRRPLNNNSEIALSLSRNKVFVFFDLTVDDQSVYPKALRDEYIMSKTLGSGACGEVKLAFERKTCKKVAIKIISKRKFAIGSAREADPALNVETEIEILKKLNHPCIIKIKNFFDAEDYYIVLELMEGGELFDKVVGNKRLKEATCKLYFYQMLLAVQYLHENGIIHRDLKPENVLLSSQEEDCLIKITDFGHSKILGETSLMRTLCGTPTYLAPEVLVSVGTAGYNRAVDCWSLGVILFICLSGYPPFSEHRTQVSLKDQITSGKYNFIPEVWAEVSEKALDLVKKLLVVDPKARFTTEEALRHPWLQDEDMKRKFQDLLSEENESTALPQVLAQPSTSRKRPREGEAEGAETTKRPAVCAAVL

GGGAAUGGAUCCACAUCUACGAAUUCGAUCGGUUCCAACGCUCUGUCGCCUAAGUGAACAGAUGAAGAAAAAAUAGCCCAAUAAGAGGCAACAAUCUUUCACUGCAGACUUGACGAAGCUU [C6M1]
Kd (CHK2 [1]): 299 nM
Kd (CHK2 [2]): 180 nM
